Non-standard residues stand in square brackets, D forms with d. No end group written: not given here. Ala(4-thiazolyl) = N[C@@H](Cc1cscn1)C(=O)O; 1Nal = N[C@@H](Cc1cccc2ccccc12)C(=O)O; Phg = N[C@H](C(=O)O)c1ccccc1
How the values were obtained:
Assay in all cases: cell-based or functional assay
[1] = target: T1, human GLP-1 receptor (human, UniProt P43220 24-463)
[2] = target: T2, human glucagon receptor (human, UniProt P47871 26-477)
[3] = target: T1, human GLP-1 receptor; remark: listed apart in the source
[4] = target: T2, human glucagon receptor; remark: listed apart in the source

T2 sequence (P47871 26-477): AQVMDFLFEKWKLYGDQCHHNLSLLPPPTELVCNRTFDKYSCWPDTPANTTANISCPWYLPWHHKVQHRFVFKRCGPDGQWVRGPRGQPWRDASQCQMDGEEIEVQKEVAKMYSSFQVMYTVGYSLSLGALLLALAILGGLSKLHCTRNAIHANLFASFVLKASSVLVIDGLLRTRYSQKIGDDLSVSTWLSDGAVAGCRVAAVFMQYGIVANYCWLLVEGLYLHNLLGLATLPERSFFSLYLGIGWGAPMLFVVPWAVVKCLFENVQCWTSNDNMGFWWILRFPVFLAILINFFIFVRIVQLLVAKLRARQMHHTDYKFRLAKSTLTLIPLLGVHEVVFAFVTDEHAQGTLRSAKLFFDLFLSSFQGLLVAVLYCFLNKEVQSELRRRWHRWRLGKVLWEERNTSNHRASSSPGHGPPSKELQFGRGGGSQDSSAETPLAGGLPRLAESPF

Binder	EC50 hGLP-1 R [pM], cAMP formation [1] [pM]	EC50 hGLUC R [pM], cAMP formation [2] [pM]	EC50 hGLP-1R, cAMP formation [3] [nM]	EC50 hGlucagon-R, cAMP formation [4] [pM]
[Ala(4-thiazolyl)]SQGTFTSDLSKQLESRRAQEFIEWLLATGPESGAPPPS-OH (N-terminus assumed; SMILES CC[C@H](C)[C@H](NC(=O)[C@H](Cc1ccccc1)NC(=O)[C@H](CCC(=O)O)NC(=O)[C@H](CCC(N)=O)NC(=O)[C@H](C)NC(=O)[C@H](CCCNC(=N)N)NC(=O)[C@H](CCCNC(=N)N)NC(=O)[C@H](CO)NC(=O)[C@H](CCC(=O)O)NC(=O)[C@H](CC(C)C)NC(=O)[C@H](CCC(N)=O)NC(=O)[C@H](CCCCN)NC(=O)[C@H](CO)NC(=O)[C@H](CC(C)C)NC(=O)[C@H](CC(=O)O)NC(=O)[C@H](CO)NC(=O)[C@@H](NC(=O)[C@H](Cc1ccccc1)NC(=O)[C@@H](NC(=O)CNC(=O)[C@H](CCC(N)=O)NC(=O)[C@H](CO)NC(=O)[C@@H](N)Cc1cscn1)[C@@H](C)O)[C@@H](C)O)C(=O)N[C@@H](CCC(=O)O)C(=O)N[C@@H](Cc1c[nH]c2ccccc12)C(=O)N[C@@H](CC(C)C)C(=O)N[C@@H](CC(C)C)C(=O)N[C@@H](C)C(=O)N[C@H](C(=O)NCC(=O)N1CCC[C@H]1C(=O)N[C@@H](CCC(=O)O)C(=O)N[C@@H](CO)C(=O)NCC(=O)N[C@@H](C)C(=O)N1CCC[C@H]1C(=O)N1CCC[C@H]1C(=O)N1CCC[C@H]1C(=O)N[C@@H](CO)C(=O)O)[C@@H](C)O) [SEQ ID NO: 12]	20000	1	20	1
[Ala(4-thiazolyl)]SQGTFTSDLSKQLESRRAQDFIEWLLATGPESGAPPPS-OH (N-terminus assumed; SMILES CC[C@H](C)[C@H](NC(=O)[C@H](Cc1ccccc1)NC(=O)[C@H](CC(=O)O)NC(=O)[C@H](CCC(N)=O)NC(=O)[C@H](C)NC(=O)[C@H](CCCNC(=N)N)NC(=O)[C@H](CCCNC(=N)N)NC(=O)[C@H](CO)NC(=O)[C@H](CCC(=O)O)NC(=O)[C@H](CC(C)C)NC(=O)[C@H](CCC(N)=O)NC(=O)[C@H](CCCCN)NC(=O)[C@H](CO)NC(=O)[C@H](CC(C)C)NC(=O)[C@H](CC(=O)O)NC(=O)[C@H](CO)NC(=O)[C@@H](NC(=O)[C@H](Cc1ccccc1)NC(=O)[C@@H](NC(=O)CNC(=O)[C@H](CCC(N)=O)NC(=O)[C@H](CO)NC(=O)[C@@H](N)Cc1cscn1)[C@@H](C)O)[C@@H](C)O)C(=O)N[C@@H](CCC(=O)O)C(=O)N[C@@H](Cc1c[nH]c2ccccc12)C(=O)N[C@@H](CC(C)C)C(=O)N[C@@H](CC(C)C)C(=O)N[C@@H](C)C(=O)N[C@H](C(=O)NCC(=O)N1CCC[C@H]1C(=O)N[C@@H](CCC(=O)O)C(=O)N[C@@H](CO)C(=O)NCC(=O)N[C@@H](C)C(=O)N1CCC[C@H]1C(=O)N1CCC[C@H]1C(=O)N1CCC[C@H]1C(=O)N[C@@H](CO)C(=O)O)[C@@H](C)O) [SEQ ID NO: 15]	34500	2.2	34.5	2.2
[Ala(4-thiazolyl)]SQGTFTSDISKQLESRRAQEFIEWLLATGPESGAPPPS-OH (N-terminus assumed; SMILES CC[C@H](C)[C@H](NC(=O)[C@H](Cc1ccccc1)NC(=O)[C@H](CCC(=O)O)NC(=O)[C@H](CCC(N)=O)NC(=O)[C@H](C)NC(=O)[C@H](CCCNC(=N)N)NC(=O)[C@H](CCCNC(=N)N)NC(=O)[C@H](CO)NC(=O)[C@H](CCC(=O)O)NC(=O)[C@H](CC(C)C)NC(=O)[C@H](CCC(N)=O)NC(=O)[C@H](CCCCN)NC(=O)[C@H](CO)NC(=O)[C@@H](NC(=O)[C@H](CC(=O)O)NC(=O)[C@H](CO)NC(=O)[C@@H](NC(=O)[C@H](Cc1ccccc1)NC(=O)[C@@H](NC(=O)CNC(=O)[C@H](CCC(N)=O)NC(=O)[C@H](CO)NC(=O)[C@@H](N)Cc1cscn1)[C@@H](C)O)[C@@H](C)O)[C@@H](C)CC)C(=O)N[C@@H](CCC(=O)O)C(=O)N[C@@H](Cc1c[nH]c2ccccc12)C(=O)N[C@@H](CC(C)C)C(=O)N[C@@H](CC(C)C)C(=O)N[C@@H](C)C(=O)N[C@H](C(=O)NCC(=O)N1CCC[C@H]1C(=O)N[C@@H](CCC(=O)O)C(=O)N[C@@H](CO)C(=O)NCC(=O)N[C@@H](C)C(=O)N1CCC[C@H]1C(=O)N1CCC[C@H]1C(=O)N1CCC[C@H]1C(=O)N[C@@H](CO)C(=O)O)[C@@H](C)O) [SEQ ID NO: 8]	5800	2.2	5.8	2.2
[Ala(4-thiazolyl)]SQGTFTSDVSKQLESRRAQEFIEWLLATGPESGAPPPS-OH (N-terminus assumed; SMILES CC[C@H](C)[C@H](NC(=O)[C@H](Cc1ccccc1)NC(=O)[C@H](CCC(=O)O)NC(=O)[C@H](CCC(N)=O)NC(=O)[C@H](C)NC(=O)[C@H](CCCNC(=N)N)NC(=O)[C@H](CCCNC(=N)N)NC(=O)[C@H](CO)NC(=O)[C@H](CCC(=O)O)NC(=O)[C@H](CC(C)C)NC(=O)[C@H](CCC(N)=O)NC(=O)[C@H](CCCCN)NC(=O)[C@H](CO)NC(=O)[C@@H](NC(=O)[C@H](CC(=O)O)NC(=O)[C@H](CO)NC(=O)[C@@H](NC(=O)[C@H](Cc1ccccc1)NC(=O)[C@@H](NC(=O)CNC(=O)[C@H](CCC(N)=O)NC(=O)[C@H](CO)NC(=O)[C@@H](N)Cc1cscn1)[C@@H](C)O)[C@@H](C)O)C(C)C)C(=O)N[C@@H](CCC(=O)O)C(=O)N[C@@H](Cc1c[nH]c2ccccc12)C(=O)N[C@@H](CC(C)C)C(=O)N[C@@H](CC(C)C)C(=O)N[C@@H](C)C(=O)N[C@H](C(=O)NCC(=O)N1CCC[C@H]1C(=O)N[C@@H](CCC(=O)O)C(=O)N[C@@H](CO)C(=O)NCC(=O)N[C@@H](C)C(=O)N1CCC[C@H]1C(=O)N1CCC[C@H]1C(=O)N1CCC[C@H]1C(=O)N[C@@H](CO)C(=O)O)[C@@H](C)O) [SEQ ID NO: 7]	4190	2.4	4.19	2.4
[Ala(4-thiazolyl)]SQGTFTSD[Phg]SKQLESRRAQEFIEWLLATGPESGAPPPS-OH (N-terminus assumed; SMILES CC[C@H](C)[C@H](NC(=O)[C@H](Cc1ccccc1)NC(=O)[C@H](CCC(=O)O)NC(=O)[C@H](CCC(N)=O)NC(=O)[C@H](C)NC(=O)[C@H](CCCNC(=N)N)NC(=O)[C@H](CCCNC(=N)N)NC(=O)[C@H](CO)NC(=O)[C@H](CCC(=O)O)NC(=O)[C@H](CC(C)C)NC(=O)[C@H](CCC(N)=O)NC(=O)[C@H](CCCCN)NC(=O)[C@H](CO)NC(=O)[C@@H](NC(=O)[C@H](CC(=O)O)NC(=O)[C@H](CO)NC(=O)[C@@H](NC(=O)[C@H](Cc1ccccc1)NC(=O)[C@@H](NC(=O)CNC(=O)[C@H](CCC(N)=O)NC(=O)[C@H](CO)NC(=O)[C@@H](N)Cc1cscn1)[C@@H](C)O)[C@@H](C)O)c1ccccc1)C(=O)N[C@@H](CCC(=O)O)C(=O)N[C@@H](Cc1c[nH]c2ccccc12)C(=O)N[C@@H](CC(C)C)C(=O)N[C@@H](CC(C)C)C(=O)N[C@@H](C)C(=O)N[C@H](C(=O)NCC(=O)N1CCC[C@H]1C(=O)N[C@@H](CCC(=O)O)C(=O)N[C@@H](CO)C(=O)NCC(=O)N[C@@H](C)C(=O)N1CCC[C@H]1C(=O)N1CCC[C@H]1C(=O)N1CCC[C@H]1C(=O)N[C@@H](CO)C(=O)O)[C@@H](C)O) [SEQ ID NO: 10]	45000	6	45	6
[Ala(4-thiazolyl)]SQGTFTSD[1Nal]SKQLESRRAQEFIEWLLATGPESGAPPPS-OH (N-terminus assumed; SMILES CC[C@H](C)[C@H](NC(=O)[C@H](Cc1ccccc1)NC(=O)[C@H](CCC(=O)O)NC(=O)[C@H](CCC(N)=O)NC(=O)[C@H](C)NC(=O)[C@H](CCCNC(=N)N)NC(=O)[C@H](CCCNC(=N)N)NC(=O)[C@H](CO)NC(=O)[C@H](CCC(=O)O)NC(=O)[C@H](CC(C)C)NC(=O)[C@H](CCC(N)=O)NC(=O)[C@H](CCCCN)NC(=O)[C@H](CO)NC(=O)[C@H](Cc1cccc2ccccc12)NC(=O)[C@H](CC(=O)O)NC(=O)[C@H](CO)NC(=O)[C@@H](NC(=O)[C@H](Cc1ccccc1)NC(=O)[C@@H](NC(=O)CNC(=O)[C@H](CCC(N)=O)NC(=O)[C@H](CO)NC(=O)[C@@H](N)Cc1cscn1)[C@@H](C)O)[C@@H](C)O)C(=O)N[C@@H](CCC(=O)O)C(=O)N[C@@H](Cc1c[nH]c2ccccc12)C(=O)N[C@@H](CC(C)C)C(=O)N[C@@H](CC(C)C)C(=O)N[C@@H](C)C(=O)N[C@H](C(=O)NCC(=O)N1CCC[C@H]1C(=O)N[C@@H](CCC(=O)O)C(=O)N[C@@H](CO)C(=O)NCC(=O)N[C@@H](C)C(=O)N1CCC[C@H]1C(=O)N1CCC[C@H]1C(=O)N1CCC[C@H]1C(=O)N[C@@H](CO)C(=O)O)[C@@H](C)O) [SEQ ID NO: 11]	11700	0.9	11.7	0.9
